From the DeepSol protein solubility set

Assay: soluble on expression in E. coli; label from the status in PepcDB or PDB records

Sequence | soluble on expression in E. coli
MMDITTLDQFKDEIYGVKGTPRRDNLERELETLRIGVQIRNARQKKEMTQAQLAERINKKRTFISKVENDGGNLTLKTLIDIVERGLGGKLNIEVKI | not soluble
MTGTVSRRKKIAMIGSGMIGGTMGYLCVLRELADVVLFDVVTGMPEGKALDDSQATSIADTNVSVTSANQYEKIAGSDVVIITAGLTKVPGKSDKEWSRNDLLPFNAKIIREVAQGVKKYCPLAFVIVVTNPLDCMVKCFHEASGLPKNMVCGMANVLDSARFRRFIADQLEISPRDIQATVIGTHGDHMLPLARYVTVNGFPLREFIKKGKMTEAKLAEIVERTKKAGGEIVRLLGQGSAYYAPALSAITMAQAFLKDEKRVLPCSVYCQGEYGLHDMFIGLPAVIGGGGIEQVIELELTHEEQECFRKSVDDVVELNKSLAALGPG | soluble
MGHHHHHHSHMETIGAKALEDFADNIKNDPDKEYNMPKDGTVHELTSNAILFLQQLLDFQETAGAMLASQETSSSATSYSSEFSKRLLSTYICKVLGNLQLNLLSKSKVYEDPALSAIFLHNNYNYILKSLEKSELIQLVAVTQKTAERSYREHIEQQIQTYQRSWLKVTDYIAEKNLPVFQPGVKLRDKERQIIKERFKGFNDGLEELCKIQKAWAIPDTEQRDRIRQAQKTIVKETYGAFLQKFGSVPFTKNPEKYIKYGVEQVGDMIDRLFDTSA | not soluble
MSDKKVFILSGARTPIGAYRGSFANFGAVELGTVAAKAAIERSGVAPEKIEEVIGGCVLPAGLGQNVTRQISLSAGLPVTTQAVTVNKVCSSSMKALVTAAVEIKAGYYDTILVVGTENMSQVPFYVPRGEIPFGGIQMTDGISKDGLEDIKEKGPMGLCAEKTVKDYGITREEQDAYAIESYKKASNAWSSEKFSEEVVPVSVKTSRSEVVITEDEEYKKLIESKVSSLKPVFVRDGTGTITPANASSLNDGAVATVVVGENALPQGAHPLAELVAFAEAGRAPIDFTVAPVDAVRLLLKKSGLQVSDIALWELNEAFAVTVLAFIKELNIEPSVVNVKGGAVAIGHPLGMSGLRIVNSLAYSLAPGQLGVAAICNGGGEATAVLIKKL | not soluble
SNAEELIEIREARMDDLDTIAKFNYNLAKETEGKELDMDVLTKGVKALLLDERKGKYHVYTVFDKVVAQIMYTYEWSDWRNGNFLWIQSVYVDKEYRRKGIFNYLFNYIKNICDKDENIVGMRLYVEKENINAKATYESLNMYECDYNMYEYEVIHS | soluble
MGSDKIHHHHHHMISAEQLVFTYHDQKNPACQISTCQIASGQFIVLCGPSGSGKSTFLKLLNGIIPDYYAGKYEGRLDVADCQAGRDSVETFSRSVASVFQNPASQFFYREVQHELVFPCENQGLDAKVIMKRLWTLAEDFAFAELLNKDMFGLSGGQKQRVAIATAIMQGTNIMLFDEPTANLDSAGIAAVKAYLTQLKAAGKTIIVAEHRLHYLMDLADNFFYFKNGRLTDKLTTQNLLALTDEQRQDMGLRRLDLSDLKPVLAGKIESQHYRPDDSLCIEHLTVRAGSKILRCIEQLSFAVGSISGITGSNGLGKSQLVYYIAGILDDKKATIKFQGIPLSAKQRLSKTSIVLQEVSLQLFAESVSKEVNLGHERHPRTTEVIERLSLTTLLERHPASLSGGEQQRVMIAASLLADKDILIFDEPSSGLDLLQMKALANLLMQLKTQHKVVILISHDEELLSSVCDTIYQMLP | not soluble
MQCLQFDSINLIEHILPDVRFWLVPPSRTHHLHEHFHHISWQTEAIPQTESKPDKPWFALPQTSERQKPEHILVIGAGISGAATAHALASHGISVTVLEARKAAQAASGNRQGLLYAKISPHDTEQTELLLAGYGYTKRLLGHILPESETWGGNGIIHLNYSRTEQQRNHELGLQKHHNHLYRSITSAEAEKIAGIPLSVPYDHPSCGLYWQHGVWLNPPAFVRTLLNHPLIGLHEDTPLTDISHDGEKWIASTPNGTFTATHIIYCTGANSPYLPETNLAALPLRQIRGQTGLTPSTPFSEQLRCAVSGESYISPSWHGLHCYGASFIPNSSHTGWNEAEEASNRQALAHLNPALSESLFAANPNPQKHQGHAAIRCDSPDHLPLVGALGDIAAMRQTYTKLALDKNYRIDTPCPYLPNAYVNTAHGTRGLATAPICAAAIAAQILGLPHPFSQRLRHALHPNRTIIRAIVRRKDLTPLEHHHHHH | not soluble
GPGSMKLTFYRLLGCPYCAKVEAVLQYHDVPYEEVHVDPLSGKGLPDRRYQLAPQLYLAPLAKRNSGGAEAAATDSNGVYVVDSAEIVSRLSGPLKYAADIANPRISATRDWITNHFHGASFAITNNSFCDAYATYAYVTPSNYQNFLYHVVGSAALSVLSRYKIQPRLIAKMECADGPAAATPTGAPASTDSNGLWMLSEASRKALAATVRFGAVEEWLRAELQTFLQRRPADKVFHGGSSPDLADVEMYGVTRVVDQHPRLGAVVREGAFGEWQTAMREKLKANTGSVYA | not soluble
MAAAPPSADPLDKALIVDVDQWIEQLYECKPLSENQVKTLCEKAKEILEKEPNVQEVRCPVTVCGDVHGQFHDLMELFKMGGKSPDTNYLFMGDYVDRGYYSVETVSLLVCLKIRYKDRVTLLRGNHESRQITQVYGFYDECLRKYGNSNVWKYFTDLFDCFPLTALVDGQIFCLHGGLSPSIDTLDHIRALDRIQEVPHEGPMCDLLWSDPDDRGGWGISPRGAGYTFGQDISETFNHSNGLTLISRAHQLVMEGYNWSHDRNVVTVFSAPNYCYRCGNQAAMVELDDDLKYSFLQFDPAPRRGEPHVTRRTPDYFL | not soluble
MERSALVTGGASGLGRAAALALKARGYRVVVLDLRREGEDLIYVEGDVTREEDVRRAVARAQEEAPLFAVVSAAGVGLAEKILGKEGPHGLESFRRVLEVNLLGTFNVLRLAAWAMRENPPDAEGQRGVIVNTASVAAFEGQIGQAAYAASKGGVVALTLPAARELAGWGIRVVTVAPGLFDTPLLQGLPEKAKASLAAQVPFPPRLGRPEEYAALVLHILENPMLNGEVVRLDGALRMAPR | soluble
MGSDKIHHHHHHMNPEFIHGATEIETTNRGLRPHRLSKEIVERYCDPQFSAMERQPSGVRVVCRTTATSVTLTTYSTRVVYLDSGRPGGKIDVLIDGAPTSSTPTSGGETTEVNFITGATERRLKDPQVLTVDGLSEQEKVVEFWLPHNEEIEVISLKANAALNTVEDTRPVWINYGSSISHGSVATAPTKIWPAIVAQSKNYNLRNFGFGGSAMLDPFMARLIRDTPADLITLEIGINIVNGDVMRRRGLEAAVDGFINTIRDGHPTTPIKIVSPFYCPIHEKTPGPGAFDTSSFGSGQIRFIATGEPDEHGRLTLEMVREVLEGFVEKQKDPHLTYVDGASLYQASDAPLLDNLHPDEASHALIAQRLLKQL | not soluble
NGGIPHDNLVLIRMKPDENGRFGFNVKGGYDQKMPVIVSRVAPGTPADLCVPRLNEGDQVVLINGRDIAEHTHDQVVLFIKASCERHSGELMLLVRPNAVYDVVEE | soluble
MNKFVRLAAIAGLLLAGASYATDTTYRIDQLPQLRQEPEHATVSERVTSRFTRSHYRQFALDDQFSAKIFDRYLNMLDYSHNVLLASDVAQFADKKYSLDKELKSGQLDTPFALFNLAQKRRFERYQYALSVLDRPMVFTGNDTIDIDRAKAPWPSSEAELNALWDAKVKYDQLNLKLAGKTDKEIKETLTKRYQSAIKRLTQSNSEDVFQLIMNAFAREIDPHTNYLSPRNTEQFNTEMSLSLEGIGAVLQMDDDYTLINSMVPGGPAAKSKTIAVGDRVIGVGQAGKPMVDVIGWRLDDVVALIKGPKGSKVRLEILPAGKGTKPRTVTLTRERIRLEDRAVKMSVKTIGKERVGVLDIPGFYVGLTEDVKVQLQKLEKQNVSSIIIDLRSNGGGALTEAVSLSGLFIPSGPVVQVRDNNGKVREDSDTDGVVYYKGPLVVLVDRYSASASEIFAAAMQDYGRALIVGEPTFGKGTVQQYRSLNRIYDQMLRPEWPALGSLQYTIQKFYRVDGGSTQRKGVTPDIVMPTGVDPAETGENFEDNALPWDRINAASYTKTGDLKPWEPELLKNHAERIAANPEFQYIQKDIERYKALKDKRNIVSLNYAQREKENRDDDMTRLTRLNERFIREGKKPLKSLDDLPKDYQEPDPYLDETVNIALDLAHKEKAQPQIASRPVAAATAGATVK | not soluble
MEHREALIALRTFLSTQILGQEKLIERLLIALLADGHMLVEGAPGLAKTKAIKELAEGIEAQFHRIQFTPDLLPADITGTEIYRPETGSFVFQQGPIFHNLVLADEINRAPAKVQSALLEAMAERQVSVGRSTYDLSPLFLVMATQNPIEQEGTYPLPEAQLDRFLMHVKIGFPDAAVERKILQQARGEALNGETKPERRVSQQAIFAARKEILGLYMADAVEEYLVQLVMATRTPAKFDPELAEWIAYGASPRGSISLDRCARAHAWLAGRDFVSPEDIQAVLFDVLRHRIILSFEAEAAGIDQDRVIQRILDVVAVALEHHHHHH | soluble
MEYLFLRRKRTTATSERQKTLLFKAAERQWKEEFAGKETDIRKVDCNIYKGILYQLEIRQVFLDTSLSLKKLSALLETNQTYLSNVVNKYFGCNLKELVNTYRVEYAKELLCSRRCALTELPCSCGFASKSAFYSAFSRIVGVSPLSYQTQERRRHHLQAVNLEHHHHHH | not soluble
MPQIQSSHSNHFDFTIDTADRTKLLMSYLVVPTTANFNNVMHGGELLNLLDKVAYVCSTRYCAKGTVTLSVDGVTFKYPIPVGNLLTFLASINYVGNTSCEVGIKVLSEDIKTREITHTNSCYFTMVAVENGKPTPMPKYEPKTEVEIRRYEGALKRKEMRTRGYLKSGKHEGVLEHHHHHH | not soluble
MSLKNNVYILADSVVTPLGQSTEENMEKLYSLQSAIRTYTHPQIGTFYASKFEDGKSFQIKKDAAGKTKIERLFISCIEKALERTEIDVENANVLFVFASTKGNVEYLTDETFDKNRLRIGITAQDVTAYFNNPNTPIVVSNACISGLQAIQYGYEVLQDNRYTHVVVTGADCFSEFILSGFHSFQALSPFPCKPFDKARAGLSLGEGCGTLILSNKKTDAAAIEILSVVSSNDANHLSGPSRTGEGLSSAILGAINEAGITAEQIDVISAHGTATLYNDEMESMAFKTANLEAKAVYSVKGNIGHTLGAAGIIETIYLAQSLQNNMLVPSIGFTETGTSVELNVTRQSTLKTMQIGLKTASGFGGGNTALLLKKEGHHHHHH | not soluble
SLDMIRIDSQTNSSHLKDEFQTLNSVTPRLQAEDCSIACLPRNHDKNRFMDMLPPDRCLPFLITIDGESSNYINAALMDSYRQPAAFIVTQYPLPNTVKDFWRLVYDYGCTSIVMLNEVDLSQGCPQYWPEEGMLRYGPIQVECMSCSMDCDVINRIFRICNLTRPQEGYLMVQQFQYLGWASHREVPGSKRSFLKLILQVEKWQEECEEGEGRTIIHCLNGGGRSGMFCAIGIVVEMVKRQNVVDVFHAVKTLRNSKPNMVEAPEQYRFCYDVALEYLESS | not soluble
MNILQFNVRLAEGGAAGVALDLHQRALQQGLASHFVYGYGKGGKESVSHQNYPQVIKHTPRMTAMANIALFRLFNRDLFGNFNELYRTITRTAGPVVLHFHVLHSYWLNLKSVVRFCEKVKNHKPDVTLVWTLHDHWSVTGRCAFTDGCEGWKTGCQKCPTLNNYPPVKIDRAHQLVAGKRQLFREMLALGCQFISPSQHVADAFNSLYGPGRCRIINNGIDMATEAILADLPPVRETQGKPKIAVVAHDLRYDGKTNQQLVREMMALGDKIELHTFGKFSPFTAGNVVNHGFETDKRKLMSALNQMDALVFSSRVDNYPLILCEALSIGVPVIATHSDAAREVLQKSGGKTVSEEEVLQLVQLSKPEIAQAIFGTTLAEFSQRSRAAYSGQQMLEEYVNFYQNL | soluble
